Data reported in US20150315556.
Substitutions are numbered along the chain they refer to.

Tests used:
[1] = target: T1, GLA2 rationally-designed meganuclease (I-CreI derivative)
T1 chain: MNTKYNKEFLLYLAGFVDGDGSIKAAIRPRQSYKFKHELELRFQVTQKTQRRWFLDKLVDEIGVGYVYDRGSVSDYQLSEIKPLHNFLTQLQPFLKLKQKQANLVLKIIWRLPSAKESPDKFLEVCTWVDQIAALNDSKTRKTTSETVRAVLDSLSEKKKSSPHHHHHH

[2] = target: T2, BRP2 rationally-designed meganuclease (I-CreI derivative)
T2 chain: T1 chain with K24I, A26S, Y33C, Y68R, Q77R

[3] = target: T3, ANT2 rationally-designed meganuclease (I-CreI derivative)
T3 chain: T1 chain with K24I, A26Q, R28K, R30N, S32C, E38Q, E40Q, R42E, Y68R, Q77I

[4] = target: T4, MGC2 rationally-designed meganuclease (I-CreI derivative)
T4 chain: T1 chain with K24I, R28K, Y33R, E40Q, R42A, Q44T, Y68R

[5] = target: T5, HSV2 rationally-designed meganuclease (I-CreI derivative)
T5 chain: T1 chain with K24I, A26Q, S32C, Y33R, Y68R, Q77I

[6] = target: T6, ACH2 rationally-designed meganuclease (I-CreI derivative)
T6 chain: T1 chain with K24I, A26Q, R28K, R30E, S32D, E38R, E40R, R42E, Y68R, Q77I

[7] = target: T7, URA2 rationally-designed meganuclease (I-CreI derivative)
T7 chain: T1 chain with A26Q, R30E, S32N, Y33C, E38R, Q77I

[8] = target: T8, HGH2 rationally-designed meganuclease (I-CreI derivative; partner of HGH1, half-site SEQ ID NO: 56)
T8 chain: T1 chain with K24I, R28D, R30N, S32K, Y33R, E38Q, E40R, Y68R, Q77I

[9] = target: T9, CCR2 rationally-designed meganuclease (I-CreI derivative)
T9 chain: T1 chain with A26Q, R28K, R30E, S32N, Y33R, E38R, R42A, Q77I

[10] = target: T10, MYD2 rationally-designed meganuclease (I-CreI derivative)
T10 chain: T1 chain with K24I, R30E, E38R, Y68R

[11] = target: T11, PDX2 rationally-designed meganuclease (I-CreI derivative)
T11 chain: T1 chain with K24I, A26Q, R28C, S32C, Y33R, E40R, R42Q, Y68R, Q77I

[12] = target: T12, LAM2 rationally-designed meganuclease (I-CreI derivative)
T12 chain: T1 chain with K24I, A26Q, R28K, R30E, E38R, E40R, R42E, Y68R, Q77I

[13] = target: T13, HGH2 rationally-designed meganuclease (I-CreI derivative; partner of CYP, half-site SEQ ID NO: 76)
T13 chain: T1 chain with A26S, R28K, R30N, Y33C, E38Q, E40Q, R42A, Y66K, Q77R

[14] = target: T14, LAM2 variant in which glutamic acids at positions 8 and 61 were changed to lysine
T14 chain: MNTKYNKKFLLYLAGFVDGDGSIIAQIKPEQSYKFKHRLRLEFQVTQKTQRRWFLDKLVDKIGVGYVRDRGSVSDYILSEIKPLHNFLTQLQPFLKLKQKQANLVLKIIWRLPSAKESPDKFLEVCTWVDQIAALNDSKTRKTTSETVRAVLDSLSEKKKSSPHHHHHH

[15] = target: T15, CF2 rationally-designed meganuclease (I-CreI derivative)
T15 chain: T1 chain with K24C, R28K, R30E, S32N, Y33R, E38R, E40Q, R42A, Q44T, Q77I

B1: GLA1 rationally-designed meganuclease (I-CreI derivative) (protein)
chain: T1 chain with R28K, E40S, R42A, S79C
cleavage of a linearized DNA substrate containing the intended non-palindromic recognition sequence by the 1:1 mixture [1]: each rationally-designed meganuclease heterodimer cleaves its intended DNA site

B2: BRP1 rationally-designed meganuclease (I-CreI derivative) (protein)
chain: T1 chain with A26Q, S32C, Y33R, R42A, Y66K, Q77E
cleavage of a linearized DNA substrate containing the intended non-palindromic recognition sequence by the 1:1 mixture [2]: each rationally-designed meganuclease heterodimer cleaves its intended DNA site

B3: ANT1 rationally-designed meganuclease (I-CreI derivative) (protein)
chain: T14 chain with K8E, K28A, E30N, S32N, Y33C, R38Q, R40Q, E42R, K61E
cleavage of a linearized DNA substrate containing the intended non-palindromic recognition sequence by the 1:1 mixture [3]: each rationally-designed meganuclease heterodimer cleaves its intended DNA site

B4: MGC1 rationally-designed meganuclease (I-CreI derivative) (protein)
chain: T1 chain with A26Q, R28K, R30N, S32C, E38Q, E40Q, R42A, Q77I
cleavage of a linearized DNA substrate containing the intended non-palindromic recognition sequence by the 1:1 mixture [4]: each rationally-designed meganuclease heterodimer cleaves its intended DNA site

B5: HSV1 rationally-designed meganuclease (I-CreI derivative) (protein)
chain: T14 chain with K8E, E30R, Y33C, R38E, E42Q, K61E
cleavage of a linearized DNA substrate containing the intended non-palindromic recognition sequence by the 1:1 mixture [5]: each rationally-designed meganuclease heterodimer cleaves its intended DNA site

B6: ACH1 rationally-designed meganuclease (I-CreI derivative) (protein)
chain: T1 chain with K24I, R28D, R30E, S32D, Y33C, E38R, E40R, Y68R
cleavage of a linearized DNA substrate containing the intended non-palindromic recognition sequence by the 1:1 mixture [6]: each rationally-designed meganuclease heterodimer cleaves its intended DNA site

B7: URA1 rationally-designed meganuclease (I-CreI derivative) (protein)
chain: T14 chain with K8E, E30N, Y33C, R38Q, E42A, Q44T, K61E
cleavage of a linearized DNA substrate containing the intended non-palindromic recognition sequence by the 1:1 mixture [7]: each rationally-designed meganuclease heterodimer cleaves its intended DNA site

B8: HGH1 rationally-designed meganuclease (I-CreI derivative) (protein)
chain: T14 chain with K8E, K28D, E30N, S32D, Y33C, R38Q, E42R, K61E
cleavage of a linearized DNA substrate containing the intended non-palindromic recognition sequence by the 1:1 mixture [8]: each rationally-designed meganuclease heterodimer cleaves its intended DNA site

B9: CCR1 rationally-designed meganuclease (I-CreI derivative) (protein)
chain: T1 chain with A26Q, S32N, R42E, Q77I
cleavage of a linearized DNA substrate containing the intended non-palindromic recognition sequence by the 1:1 mixture [9]: each rationally-designed meganuclease heterodimer cleaves its intended DNA site

B10: MYD1 rationally-designed meganuclease (I-CreI derivative) (protein)
chain: T1 chain with K24I, A26Q, R42A, Y66K, Y68R, Q77E
cleavage of a linearized DNA substrate containing the intended non-palindromic recognition sequence by the 1:1 mixture [10]: each rationally-designed meganuclease heterodimer cleaves its intended DNA site

B11: PDX1 rationally-designed meganuclease (I-CreI derivative) (protein)
chain: T14 chain with K8E, E30N, S32N, Y33C, R38Q, R40Q, E42A, K61E
cleavage of a linearized DNA substrate containing the intended non-palindromic recognition sequence by the 1:1 mixture [11]: each rationally-designed meganuclease heterodimer cleaves its intended DNA site

B12: LAM1 rationally-designed meganuclease (I-CreI derivative) (protein)
chain: T1 chain with K24I, A26Q, R28D, S32C, Y33R, E40R, Y68R, Q77I
cleavage of the non-palindromic LAM1/LAM2 hybrid DNA site by a 1:1 mixture incubated at 42 C for 20 minutes [12]: The 1:1 mixture of LAM1 and LAM2, however, cleaves all three DNA sites
cleavage of the non-palindromic LAM1/LAM2 hybrid DNA site by the co-expressed enzyme mixture [12]: The co-expressed enzyme mixture was found to cleave all three sites, including the LAM1/LAM2 hybrid site

B13: CYP rationally-designed meganuclease (I-CreI derivative) (protein)
chain: T1 chain with K24I, R28K, R30N, S32D, E38Q, E40R, R42A
cleavage of a linearized DNA substrate containing the intended non-palindromic recognition sequence by the 1:1 mixture [13]: each rationally-designed meganuclease heterodimer cleaves its intended DNA site

B14: LAM1 variant in which lysines at positions 7, 57 and 96 were changed to glutamic acids (protein)
chain: MNTKYNEEFLLYLAGFVDGDGSIIAQIDPRQCRKFKHELRLRFQVTQKTQRRWFLDELVDEIGVGYVRDRGSVSDYILSEIKPLHNFLTQLQPFLELKQKQANLVLKIIWRLPSAKESPDKFLEVCTWVDQIAALNDSKTRKTTSETVRAVLDSLSEKKKSSPHHHHHH
cleavage of the LAM1/LAM2 hybrid site against the two palindromic sites by the co-expressed interface variants [14]: the LAM1/LAM2 hybrid site was found to be cleaved preferentially over the two palindromic sites

B15: CF1 rationally-designed meganuclease (I-CreI derivative) (protein)
chain: T14 chain with K8E, I24C, E30N, R38Q, R40Q, E42A, K61E, R68H
cleavage of a linearized DNA substrate containing the intended non-palindromic recognition sequence by the 1:1 mixture [15]: each rationally-designed meganuclease heterodimer cleaves its intended DNA site
